From EP4541444A1 (Cytiva BioProcess R&D AB, dated 2025)

Biological target: T1, human serum albumin (human, UniProt P02768 25-609)
T1 construct: also called HSA
Assay: SPR (Biacore), ligand immobilized on chip

binding result: binds
B1: scFvHSA (scFv)
scFv: EVQLLESGGGLVQPGGSLRLSCAVSGIDLSNYAINWVRQAPGKGLEWIGIIWASGTTFYATWAKGRFTISRDNSKNTVYLQMNSLRAEDTAVYYCARTVPGYSTAPYFDLWGQGTLVTVSSGGGGSGGGGSGGGGSDIQMTQSPSSVSASVGDRVTITCQSSPSVWSNFLSWYQQKPGKAPKLLIYEASKLTSGVPSRFSGSGSGTDFTLTISSLQPEDFATYYCGGGYSSISDTTFGGGTKVEIKRTVQASGSHHHHHH
notes: also called anti-HSA scFv
